The values below come from patent publication US20140335016A1 (PROCLARA BIOSCIENCES, published 2014).

In test [1] the target is T1, amyloid-β 1-42 fibers (fAβ42) (human, UniProt P05067 672-713).
T1 construct: domain: amyloid-β 1-42; Aggregated fibrillar state; also called Aβ fibrils; Aβ fibers
The experiment in a line: SPR, fAβ immobilized on the chip, 10^14 phage/mL.

Test [2] has as its target T1, amyloid-β 1-42 fibers (fAβ42). The test is described as follows: cell-based or functional assay.

T1 sequence (P05067 672-713 limits assumed): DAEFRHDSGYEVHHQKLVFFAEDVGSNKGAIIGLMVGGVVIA

B1: M13 filamentous bacteriophage (construct not stated) (other)
chain: AETVESCLAKPHTENSFTNVWKDDKTLDRYANYEGCLWNATGVVVCTGDETQCYGTWVPIGLAIPENEGGGSEGGGSEGGGSEGGGTKPPEYGDTPIPGYTYINPLDGTYPPGTEQNPANPNPSLEESQPLNTFMFQNNRFRNRQGALTVYTGTVTQGTDPVKTYYQYTPVSSKAMYDAYWNGKFRDCAFHSGFNEDPFVCEYQGQSSDLPQPPVNAGGGSGGGSGGGSEGGGSEGGGSEGGGSEGGGSGGGSGSGDFDYEKMANANKGAMTENADENALQSDAKGKLDSVATDYGAAIDGFIGDVSGLANGNGATGDFAGSNSQMAQVGDGDNSPLMNNFRQYLPSLPQSVECRPFVFSAGKPYEFSIDCDKINLFRGVFAFLLYVATFMYVFSTFANILRNKES
notes: Whole phage particle; also called M13 phage; wildtype M13
In test [1], B1 gave a Kd of roughly 4 nM.

B2: recombinant soluble g3p fragment comprising the N1 and N2 domains, rs-g3p(N1N2), Construct 3 (other)
chain: MAETVESCLAKSHTENSFTNVWKDDKTLDRYANYEGCLWNATGVVVCTGDETQCYGTWVPIGLAIPENEGGGSEGGGSEGGGSEGGGTKPPEYGDTPIPGYTYINPLDGTYPPGTEQNPANPNPSLEESQPLNTFMFQNNRFRNRQGALTVYTGTVTQGTDPVKTYYQYTPVSSKAMYDAYWNGKFRDCAFHSGFNEDLFVCEYQGQSSDLPQPPVNAPSGHHHHHH
On to B2, for which, in test [2], the “ThT fluorescence assay, IC50” value is roughly 20 nM.

As a reminder, the Kd is a measure of binding affinity in units of concentration.
